Target: genome-edited CXCR4 fused to Nluc (human (endogenous in HEK293FT)) (UniProt P61073)
UniProt P61073, sequence (P61073 whole entry, the tested form may be a part): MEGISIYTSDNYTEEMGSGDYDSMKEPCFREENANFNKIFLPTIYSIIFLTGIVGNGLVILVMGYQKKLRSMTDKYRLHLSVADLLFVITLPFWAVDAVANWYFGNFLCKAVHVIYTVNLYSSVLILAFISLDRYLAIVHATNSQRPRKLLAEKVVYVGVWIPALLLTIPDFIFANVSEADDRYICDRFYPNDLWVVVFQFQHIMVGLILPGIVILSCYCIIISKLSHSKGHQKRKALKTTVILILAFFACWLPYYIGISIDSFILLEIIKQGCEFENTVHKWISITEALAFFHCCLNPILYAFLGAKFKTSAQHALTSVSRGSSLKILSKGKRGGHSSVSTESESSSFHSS

inhibition of forskolin (5 µM)-mediated cAMP accumulation (HTRF) in HEK293FT cells expressing genome-edited CXCR4/Nluc: 8.6 pEC50
Substance: CXCL12 (from UniProt P48061 22-93) (ligand)

Reference: paper PMC5466623
